In patent US20260234268A1, “ANTI-ASGR1 MONOCLONAL ANTIBODY AND USE THEREOF” (CHOLESGEN (SHANGHAI) CO., LTD., priority 2022, published 2026):

Experiments:
[1] = tested on: LXRα; experiment: Western blotting of LXRα in Huh7 cells incubated with purified neutralizing antibody; type: cell-based, human; settings: 72 hours, Western blotting (FIG. 1c)
From the text: (§1) (a) Steps for preparing ASGR1 monoclonal neutralizing antibody. Purified ASGR1 protein is used as the antigen to immunize rabbits, and after the first round of screening, four B-cell monoclonal antibodies are selected as candidates. The coding region of the variable region of the antibody is then sequenced and cloned into an antibody expression vector, which is transfected into mammalian cells. The efficiency of transfection is confirmed by Western blotting and real-time quantitative PCR. Finally, the rabbit-derived Fc fragment is replaced with a murine Fc fragment. The neutralizing antibody 4B9 is selected for large-scale production and used in subsequent experiments. (b) ASGR1 protein purified from HEK293T cells is stained with Coomassie Brilliant Blue. (c) Huh7 cells are incubated with purified neutralizing antibody for 72 hours, followed by Western blotting analysis of the protein expression of LXRα. (d) Primary hepatocytes are isolated from 8-week-old wild-type C57B/L6 mice. […] The primary hepatocytes are incubated with ASGR1 neutralizing antibody 4B9 for 72 hours, after which cells are collected, total RNA is extracted from the cells, and target genes of LXR are analyzed by real-time quantitative PCR. […]

[2] = tested on: target genes of LXR; experiment: Real-time quantitative PCR of target genes of LXR in primary hepatocytes incubated with 4B9; type: cell-based; settings: primary mouse hepatocytes, 72 hours, real-time quantitative PCR (FIG. 1e)
From the text: as §1

[3] = tested on: LXRα; experiment: Western blotting of LXRα in primary hepatocytes incubated with monoclonal neutralizing antibodies; type: cell-based, mouse; settings: primary hepatocytes of wild-type C57B/L6 mice, various concentrations, 72 hours, Western blotting (FIG. 1d)
[4] = tested on: mice fed a high-fat, high-cholesterol, and cholate (HF/HC/BS) diet; experiment: 4B9 and Ezetimibe, alone or combined, in mice fed HF/HC/BS diet (Example 3, FIG. 4); type: in vivo, mouse
Protocol: (§2) All data are presented as mean±SEM.
We then devised an experiment as in FIG. 4 to verify the hypothesis. Mice were randomly divided into 8 groups according to the genotype (n=6) and fed an HF/HC/BS diet. They were intragastrically administered with EZ at 10 mg/kg per day and were intraperitoneally injected with 4B9 at 10 mg/kg every other day. The mice were sacrificed on day 7 to collect their tissues.

[5] = tested on: mice fed a high-fat, high-cholesterol, and cholate (HF/HC/BS) diet; experiment: 4B9 and atorvastatin, alone or combined, in mice fed HF/HC/BS diet, 14 days (Example 2, FIG. 3)
Protocol: 8-week-old Asgr1 knockout mice and wild-type littermates are randomly divided into 8 groups as shown in the figure according to the genotype, with 6 mice per group. The mice are given free access to water and fed a high-fat, high-cholesterol, and cholate (HF/HC/BS) diet (60% fat, 1.25% cholesterol, and 0.5% cholate). […] After 14 days, the mice are fasted for 4 hours before being sacrificed. All data are presented as mean±SEM. Statistical significance is calculated using an unpaired two-tailed Student's t-test. *p<0.05, **p<0.01, ***p<0.001. (a) Western blotting analysis of liver samples; (b) total cholesterol in serum; (c) triglyceride in serum; (d) total cholesterol in liver; (e) triglyceride in liver; (f) concentration of cholesterol in bile; (g) total cholesterol in bile; (h) concentration of bile acid in bile; (i) total bile acid in bile; (j) total cholesterol in feces; (k) body weight; (l) daily food intake; (m) ratio of liver weight to body weight; (n) blood glucose; (o) alanine transaminase in serum; (p) aspartate transaminase in serum; (q-r) real-time quantitative PCR analysis of genes related to cholesterol efflux, cholesterol synthesis and absorption, lipid synthesis, and bile acid synthesis in the liver of mice, and genes in other pathways, with cyclophilin as an internal reference; (s) hematoxylin-eosin staining of liver sections; (t) oil red O staining of liver sections.
In the experiment, wild-type littermates were used as a control. All mice were housed in an SPF (specific pathogen-free) facility and kept on a 12-hour light/12-hour dark cycle. 8-week-old male or female mice were fed a high-fat, high-cholesterol, and cholate diet (Research Diets, D12109C) as required by the experimental protocols. For treatments involving antibody neutralization or the combination of antibodies with statins or Ezetimibe, the mice were intraperitoneally injected with antibodies or intragastrically administered with drugs at specified doses. All animals were fasted for 4 hours before being sacrificed.
The collected cells or tissues were lysed in RIPA lysis buffer supplemented with protease and phosphatase inhibitors. The RIPA lysis buffer contained 50 mM Tris-HCl (pH=8.0), 150 mM NaCl, 2 mM MgCl2, 1.5% NP-40, 0.1% SDS, and 0.5% sodium deoxycholate. The protease inhibitor contained 10 μM MG-132, 10 μg/mL leupeptin, 1 mM PMSF, 5 μg/mL pepstatin, 25 μg/mL ALLN, and 1 mM DTT. The protein concentration of the lysate was determined using a BCA method (Thermo Fisher Scientific). The protein samples were incubated with membrane solubilization buffer (62.5 mM Tris-HCl (pH=6.8), 15% SDS, 8 M urea, 10% glycerol, and 100 mM DTT) and 4× loading buffer (150 mM Tris-HCl (pH=6.8), 12% SDS, 30% glycerol, 6% β-mercaptoethanol, and 0.02% bromophenol blue) at 37° C. for 30 minutes. The protein samples were separated by SDS-PAGE and transferred to a PVDF membrane, which was blocked in TBST, i.e., TBS containing 0.075% Tween 20 and 5% skim milk (3% BSA for phosphorylation experiments) for 1 hour. The membrane was incubated overnight at 4° C. with a specified primary antibody, and washed three times with TBST. Finally, Pierce ECL Plus Western blotting substrate (Thermo Fisher Scientific) was used for detection.
Blood was collected from the orbital sinus to obtain serum for the measurement of total cholesterol and triglyceride.

[6] = tested on: mice fed a high-fat, high-cholesterol, and cholate (HF/HC/BS) diet; experiment: 4B9 in mice fed HF/HC/BS diet, 14 days (Example 1, FIG. 2); type: in vivo, mouse
From the text: as §2
We further investigated whether 4B9 was able to completely simulate the improvement of Asgr1 deletion on high-fat, high-cholesterol conditions.

[7] = sacrificed on day 7, 4B9 10 mg/kg i.p. every other day, EZ 10 mg/kg per day intragastric (FIGS. 4a, 4p-q)
[8] = wild-type mice, HF/HC/BS diet, 4B9 10 mg/kg/day i.p. every other day, 14 days, Western blotting (FIG. 2a)

B1: 4B9: ASGR1 monoclonal neutralizing antibody from immunized rabbits, rabbit Fc replaced with mouse Fc; VL SEQ ID NO: 28, VH SEQ ID NO: 29 (antibody, listed as Oryctolagus cuniculus, V domains shown)
VH: QSLEESGGDLVKPGATMTLTCKASGFSFSGSLWICWVRQAPGKGLEWIACIYVGSSGSTYYASWAKGRFTISTTSSTTVTLQMTSLTAADTATYFCARRYTDAYGGYPAGSFVFKLWGPGTLVTVSS
VL: QVLTQTPSPVSAAVGGTVTINCQASQSVYNNKNLGWYQQKPGQPPKLLIYYASDLASGVPSRFKGSGSGKQFTLTISDVQCDDAATYYCQGEFSCSSADCCAFGGGTEVVVK
modifications: mouse Fc
protein stability of LXRα [1]: significantly increase
cholesterol efflux-related genes (target genes of LXR) [2]: significantly up-regulated
protein stability of LXRα [3]: significantly increase
body weight ([4]; 8 groups of mice, sacrificed on day 7, 4B9 10 mg/kg i.p. every other day, EZ 10 mg/kg per day intragastric (FIG. 4j)): No significant differences
daily food intake ([4]; 8 groups of mice, sacrificed on day 7, 4B9 10 mg/kg i.p. every other day, EZ 10 mg/kg per day intragastric (FIG. 4k)): No significant differences
ratio of liver weight to body weight ([4]; 8 groups of mice, sacrificed on day 7, 4B9 10 mg/kg i.p. every other day, EZ 10 mg/kg per day intragastric (FIG. 4l)): No significant differences
blood glucose ([4]; 8 groups of mice, sacrificed on day 7, 4B9 10 mg/kg i.p. every other day, EZ 10 mg/kg per day intragastric (FIG. 4m)): No significant differences
ALT ([4]; 8 groups of mice, sacrificed on day 7, 4B9 10 mg/kg i.p. every other day, EZ 10 mg/kg per day intragastric (FIG. 4n)): No significant differences
AST ([4]; 8 groups of mice, sacrificed on day 7, 4B9 10 mg/kg i.p. every other day, EZ 10 mg/kg per day intragastric (FIG. 4o)): No significant differences
cholesterol synthesis or absorption-related genes and their proteins in liver ([4]; sacrificed on day 7, 4B9 10 mg/kg i.p. every other day (FIGS. 4a, 4p-q)): without affecting the levels
total cholesterol in serum ([4]; sacrificed on day 7, 4B9 10 mg/kg i.p. every other day, EZ 10 mg/kg per day intragastric (FIG. 4b)): effectively reduce
triglyceride in serum ([4]; sacrificed on day 7, 4B9 10 mg/kg i.p. every other day, EZ 10 mg/kg per day intragastric (FIG. 4c)): effectively reduce
triglyceride in liver ([4]; sacrificed on day 7, 4B9 10 mg/kg i.p. every other day, EZ 10 mg/kg per day intragastric (FIG. 4e)): effectively reduce
total amount of total cholesterol in bile ([4]; sacrificed on day 7, 4B9 10 mg/kg i.p. every other day, EZ 10 mg/kg per day intragastric (FIG. 4g)): increased
total amount of total bile acid in bile ([4]; sacrificed on day 7, 4B9 10 mg/kg i.p. every other day, EZ 10 mg/kg per day intragastric (FIG. 4i)): increased
total cholesterol in liver ([4]; sacrificed on day 7, 4B9 10 mg/kg i.p. every other day, EZ 10 mg/kg per day intragastric (FIG. 4d)): effectively reduce
cholesterol efflux-related genes and their proteins (LXRs, ABCG8, ABCA1, CYP7A1) in liver [4, 7]: increased levels
lipid synthesis-related genes and their proteins (SREBP1, FASN) in liver [4, 7]: inhibited the levels
cholesterol synthesis or absorption-related genes and their proteins in liver ([5]; 4B9 10 mg/kg/day i.p. every other day (FIGS. 3a, 3q-r)): without affecting the levels
total cholesterol in serum ([5]; 4B9 10 mg/kg/day i.p. every other day, atorvastatin 30 mg/kg/day intragastric daily (FIG. 3b)): effectively reduce
triglyceride in serum ([5]; 4B9 10 mg/kg/day i.p. every other day, atorvastatin 30 mg/kg/day intragastric daily (FIG. 3c)): effectively reduce
triglyceride in liver ([5]; 4B9 10 mg/kg/day i.p. every other day, atorvastatin 30 mg/kg/day intragastric daily (FIG. 3e)): effectively reduce
total amount of total cholesterol in bile ([5]; 4B9 10 mg/kg/day i.p. every other day, atorvastatin 30 mg/kg/day intragastric daily (FIG. 3g)): increased
total amount of total bile acid in bile ([5]; 4B9 10 mg/kg/day i.p. every other day, atorvastatin 30 mg/kg/day intragastric daily (FIG. 3i)): increased
total cholesterol in feces ([5]; 4B9 10 mg/kg/day i.p. every other day, atorvastatin 30 mg/kg/day intragastric daily (FIG. 3j)): significantly increased
total cholesterol in liver ([5]; 4B9 10 mg/kg/day i.p. every other day, atorvastatin 30 mg/kg/day intragastric daily (FIG. 3d)): effectively reduce
lipid synthesis-related genes and their proteins (SREBP1, FASN) in liver ([5]; 4B9 10 mg/kg/day i.p. every other day, atorvastatin 30 mg/kg/day intragastric daily (FIGS. 3a, 3q-r)): inhibited the levels
all parameters in Asgr1 knockout mice with or without injection of 4B9 ([6]; Asgr1 knockout mice, HF/HC/BS diet, 4B9 10 mg/kg/day i.p. every other day, 14 days (FIG. 2a)): remained unchanged
real-time quantitative PCR of liver genes (cholesterol efflux, cholesterol synthesis and absorption, lipid synthesis, bile acid metabolism) ([6]; HF/HC/BS diet, 4B9 10 mg/kg/day i.p. every other day, 14 days (FIG. 2b)): consistent with protein-level changes
body weight ([6]; HF/HC/BS diet, 4B9 10 mg/kg/day i.p. every other day, 14 days (FIG. 2n)): no significant changes
daily food intake ([6]; HF/HC/BS diet, 4B9 10 mg/kg/day i.p. every other day, 14 days (FIG. 2o)): no significant changes
ratio of liver weight to body weight ([6]; HF/HC/BS diet, 4B9 10 mg/kg/day i.p. every other day, 14 days (FIG. 2p)): no significant changes
blood glucose ([6]; HF/HC/BS diet, 4B9 10 mg/kg/day i.p. every other day, 14 days (FIG. 2q)): no significant changes
ALT (alanine transaminase in serum) ([6]; HF/HC/BS diet, 4B9 10 mg/kg/day i.p. every other day, 14 days (FIG. 2r)): no significant changes
AST (aspartate transaminase in serum) ([6]; HF/HC/BS diet, 4B9 10 mg/kg/day i.p. every other day, 14 days (FIG. 2s)): no significant changes
total cholesterol in serum ([6]; HF/HC/BS diet, 4B9 10 mg/kg/day i.p. every other day, 14 days, vs control group (FIG. 2c)): significant decrease
total cholesterol in liver ([6]; HF/HC/BS diet, 4B9 10 mg/kg/day i.p. every other day, 14 days, vs control group (FIG. 2e)): significant decrease
triglyceride in liver ([6]; HF/HC/BS diet, 4B9 10 mg/kg/day i.p. every other day, 14 days, vs control group (FIG. 2f)): significant decrease
total amount of total cholesterol in bile ([6]; HF/HC/BS diet, 4B9 10 mg/kg/day i.p. every other day, 14 days, vs control group (FIG. 2i)): significant increase
total cholesterol in feces ([6]; HF/HC/BS diet, 4B9 10 mg/kg/day i.p. every other day, 14 days, vs control group (FIG. 2k)): significant increase
concentration of total bile acid in bile ([6]; HF/HC/BS diet, 4B9 10 mg/kg/day i.p. every other day, 14 days, vs control group (FIG. 2l)): significant increase
total amount of total bile acid in bile ([6]; HF/HC/BS diet, 4B9 10 mg/kg/day i.p. every other day, 14 days, vs control group (FIG. 2m)): significant increase
concentration of total cholesterol in bile ([6]; HF/HC/BS diet, 4B9 10 mg/kg/day i.p. every other day, 14 days, vs control group (FIG. 2h)): significant increase
triglyceride in serum ([6]; HF/HC/BS diet, 4B9 10 mg/kg/day i.p. every other day, 14 days, vs control group (FIG. 2d)): significant decrease
volume of gallbladder ([6]; HF/HC/BS diet, 4B9 10 mg/kg/day i.p. every other day, 14 days, vs control group (FIGS. 2g, j)): significant increase
overall lipid-lowering effect ([6]; summary of Example 1, high-fat, high-cholesterol diet): very significant lipid-lowering effect
BARD1 in liver [6, 8]: significantly reduced
LDLR in liver [6, 8]: remained unchanged
cholesterol efflux-related proteins (LXR, ABCG8, ABCA1, CYP7A1) in liver [6, 8]: significantly increased
lipid synthesis-related proteins SREBP1 and FASN in liver [6, 8]: significantly reduced
p-ACC in liver [6, 8]: significantly up-regulated
